According to patent US6174855A, “Pharmaceutical compositions comprising thrombin inhibitors and their use in the control of wound healing processes” (AstraZeneca AB, priority 1996, dated 2001):

System: fibrin-related adhesions between the stomach and the liver, the intestines and the omentum
Assay: Acetic acid injury to the serosal surface of the rat stomach: formation of adhesions
Assay type: in vivo
Details: minipump in abdominal cavity, outlet free and open; wound covered by chitosan membrane; up to 10 days
Method: The serosal surface of the stomach of an adult anaesthetised rat was exposed in an area of 7 mm diameter to 80% acetic acid over 60 seconds. After rinsing with buffered saline solution, an osmotic minipump (Alza 2001, volume about 220 μL; pumping rate about 1 μL/h; Alza Corp.; Palo Alto, Calif., USA; prefilled with a solution of the thrombin inhibitor melagatran, 2-100 μg/mL) was implanted into the peritoneal cavity, with the outlet of the pump kept open, and delivered its content into the abdominal cavity. The wounded area was covered by a chitosan membrane or, in an alternative experiment, a gel, having a diameter several millimeters larger than that of the injured area.
The serosal surface of the stomach of an adult, anaesthetised rat was exposed in an area of 7 mm diameter to 80% acetic acid over 60 seconds. After rinsing with buffered saline, the wounded area was covered by a chitosan membrane or, in an alternative experiment, a gel, having a diameter several millimeters larger than the injured area. An osmotic minipump (Alza 2001, volume about 220 μL; pumping rate about 1 μL/h; Alza Corp.; Palo Alto, Calif., USA; prefilled with a solution of the thrombin inhibitor melagatran, 2-100 μg/mL) was implanted subcutaneously, with the outlet of the pump kept open, delivering its content into the adjacent tissue. […]

B1: Actilyse: recombinant human tissue-plasminogen-activator; Boehringer Ingelheim (protein, UniProt P00750 36-562, looked up)
Tissue-type plasminogen …: SYQVICRDEKTQMIYQQHQSWLRPVLRSNRVEYCWCNSGRAQCHSVPVKSCSEPRCFNGGTCQQALYFSDFVCQCPEGFAGKCCEIDTRATCYEDQGISYRGTWSTAESGAECTNWNSSALAQKPYSGRRPDAIRLGLGNHNYCRNPDRDSKPWCYVFKAGKYSSEFCSTPACSEGNSDCYFGNGSAYRGTHSLTESGASCLPWNSMILIGKVYTAQNPSAQALGLGKHNYCRNPDGDAKPWCHVLKNRRLTWEYCDVPSCSTCGLRQYSQPQFRIKGGLFADIASHPWQAAIFAKHRRSPGERFLCGGILISSCWILSAAHCFQERFPPHHLTVILGRTYRVVPGEEEQKFEVEKYIVHKEFDDDTYDNDIALLQLKSDSSRCAQESSVVRTVCLPPADLQLPDWTECELSGYGKHEALSPFYSERLKEAHVRLYPSSRCTSQHLLNRTVTDNMLCAGDTRSGGPQANLHDACQGDSGGPLVCLNDGRMTLVGIISWGLGCGQKDVPGVYTKVTNYLDWIRDNMRP
With B1 the “fibrin network or strands of newly formed granulation tissue connecting the stomach with the liver, the intestines and the omentum” value was “No fibrin network, nor any strands of newly formed granulation tissue, could be detected”.
